The results in this text go back to US20110002939A1 (BIOCON, published 2011).

The target in the assay is T1, rhCD6FC/Chimera (R and D systems) (human, UniProt P30203 25-398).
T1 construct: Bought reagent; also called CD6 receptor; Fc part of the bought chimera not given
T1 sequence (looked up): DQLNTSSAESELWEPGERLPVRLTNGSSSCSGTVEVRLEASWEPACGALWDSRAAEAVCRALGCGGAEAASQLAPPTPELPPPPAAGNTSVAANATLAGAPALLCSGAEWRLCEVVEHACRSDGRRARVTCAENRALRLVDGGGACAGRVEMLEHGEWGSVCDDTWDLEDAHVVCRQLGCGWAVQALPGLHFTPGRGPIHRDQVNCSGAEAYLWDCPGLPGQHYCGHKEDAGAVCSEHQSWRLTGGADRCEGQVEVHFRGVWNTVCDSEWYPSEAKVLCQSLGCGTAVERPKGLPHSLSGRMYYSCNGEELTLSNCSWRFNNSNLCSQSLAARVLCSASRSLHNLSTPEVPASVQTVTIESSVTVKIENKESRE
Nature of the assay: ELISA, plate-bound rhCD6-Fc, T1h 0.2 mg/ml with varying rhALCAM-Fc, anti human IgG (Fab)2 ALP detection. The protocol: The rhCD6FC/Chimera (R and D systems) (100 μg/ml) was diluted in coating buffer and 100 μl was added to each well of a 96 well Nunc-Maxisorp plate. The plate was then incubated at 4° C. overnight. The Plate was washed thrice with PBS Tween 20. Subsequently, 200 μl of blocking solution (2% BSA+0.1%Tween 20 in 1× PBS) was added and incubated for 1 hour at 37° C. After incubation, the plate was washed again with PBS Tween thrice, followed by the addition of T1h monoclonal antibody (0.2 mg/ml) and .rhALCAMFc (R and D systems) at varying concentrations. This was then incubated for an hour at 37° C. The plate was washed 3 times subsequently with PBS Tween. To the wells 200 μl of anti human IgG (Fab)₂ ALP (1:20000) diluted in blocking buffer was added and incubated for 1 hour at 37° C. The plate was washed thrice with PBS tween and 200 μl of p-Nitrophenyl Phosphate (PNPP) substrate is added to each well and incubated at 37° C. till colour develops around 15 minutes. Reading was taken at 405 nm using a BIOTEK Micro Plate Reader.
(In general: An ELISA detects its analyte on a solid surface through an enzyme-linked reagent.)

B1: T1h, humanized IgG1 isotype anti-CD6 monoclonal antibody (antibody, V domains shown)
VH: EVQLVESGGGLVKPGGSLKLSCAASGFKFSRYAMSWVRQAPGKRLEWVATISSGGSYIYYPDSVKGRFTISRDNVKNTLYLQMSSLRSEDTAMYYCARRDYDLDYFDSWGQGTLVTVSS
VL: DIQMTQSPSSLSASVGDRVTITCKASRDIRSYLTWYQQKPGKAPKTLIYYATSLADGVPSRFSGSGSGQDYSLTISSLESDDTATYYCLQHGESPFTLGSGTKLEIK
notes: also called humanized IOR-T1; sT1h
For the molecule B1, the binding result is “binds”.
